# PMC3005950
# What was measured:
# [1] = target: IL-7 receptor alpha chain extracellular domain, glycosylated, IL-7Ralpha (CHO) (UniProt P16871); experiment: SPR; conditions: pH 7.4, 298 K, 10 mM HEPES (pH 7.4)
# [2] = target: IL-7 receptor alpha chain extracellular domain, nonglycosylated, IL-7Ralpha (EC) (UniProt P16871); experiment: SPR; conditions: pH 7.4, 298 K, 10 mM HEPES (pH 7.4)
# [3] = target: IL-7Ralpha ECD (Homo sapiens) (UniProt P16871); conditions: cited from earlier work
Substance,ΔG^o ([1]; 50 mM NaCl) [kcal/mol],ΔG^o ([1]; 1 M NaCl) [kcal/mol],ΔG^o ([2]; 50 mM NaCl) [kcal/mol],k−1 ([2]; 300 mM NaCl) [s⁻¹],ΔG^o ([2]; 300 mM NaCl) [kcal/mol],Kd [3] [nM]
Interleukin-7 (IL-7),-11.8,-8.33,-7.72,0.121,-4.68,
IL-7 (from UniProt P13232),,,,,,60
